Measurements as given in publication PMC9864903, “Imaging of the Glucose-Dependent Insulinotropic Polypeptide Receptor Using a Novel Radiolabeled Peptide Rationally Designed Based on Endogenous GIP and Synthetic Exendin-4 Sequences” (Pharmaceuticals, 2022).

Tests used:
[1] = ex vivo organ distribution in Sprague Dawley rats; conditions: rat, i.v.
Protocol: The in vivo organ distribution of [^68Ga]Ga-C803-GIP was assessed in Sprague Dawley rats (324 ± 36 g, male, n = 16). The radiotracer was administered into the tail vein of unsedated animals as a bolus in 0.5–0.6 mL of PBS as the vehicle. The animals received 4.1 ± 2.2 MBq/kg ^68Ga]Ga-C803-GIP corresponding to 2.4 ± 1.3 µg/kg peptide mass.
The in vivo organ distribution was conducted for 5 to 180 min, euthanizing two animals at each of eight time points (5, 10, 20, 40, 60, 90, 120, or 180 min). Samples of blood, heart, lung, liver, pancreas, spleen, adrenal, kidney, small intestine (without/with its content), large intestine (without its content), feces, urinary bladder (rinsed), testis, muscle, bone, bone marrow, thyroid, and brain were immediately harvested, weighed, and measured for radioactivity (gamma counter). The organ uptake of [^68Ga]Ga-C803-GIP was corrected for radioactivity decay to the time point of administration and expressed as standardized uptake values (SUVs, Equation (1)). (1) SUV (1/1)=Radioactivitytissue (Bq)/Weighttissue(g)/Radioactivityinjected (Bq)/Weightbody(g)
The competition experiments were designed and guided by the results of the organ distribution study. Based on the observed rapid clearance of [^68Ga]Ga-C803-GIP from the pancreas (known to contain the GIPR), 20 min post-administration was the time point selected for the blocking studies. The rats (351 ± 23 g, male, n = 8) were administered [^68Ga]Ga-C803-GIP (18.4 ± 3.7 MBq/kg; 10.7 ± 2.2 µg/kg). A high radioactive dose was selected to potentially increase the tissue signal. Half of them (n = 4) received [^68Ga]Ga-C803-GIP alone, while the other half was co-injected with 1 mg/kg of non-labeled C803-GIP. The animals were sacrificed 20 min after the administration of [^68Ga]Ga-C803-GIP, and the tissue uptake of the tracer was analyzed as described above.

[2] = post-production stability of the 68Ga-labeled product at room temperature (UV-Radio-HPLC); format: physicochemical; conditions: ambient temperature, for at least 2 h, with addition of ascorbic acid
Description: The ^68Ga-labeling procedure was optimized in terms of the radiochemical yield and required optimization of such factors as temperature, heating time, radical scavenger content, buffer concentration, pH, and product purification mean. The labeling was reproducible with a high non-decay corrected radiochemical yield of 61.1 ± 2.9% and a molar activity of 59.8 ± 4.4 MBq/nmol at the end of the synthesis (Figure 2). The radioactivity at the end of the synthesis was 424 ± 29 MBq with a radiochemical purity of 94.5 ± 0.3% (for the chromatogram, see Supplementary Materials, Figure S1). […]
The ^68Ge/^68Ga generator (pharmaceutical grade, GalliaPharm®, Eckert & Ziegler, Berlin, Germany) eluate was fractionated, and the top fraction of 3.5 mL containing approximately 90% of the radioactivity was collected for the radiolabeling. […] The radiochemical purity and the peptide concentration in the product were determined by high-pressure liquid chromatography (HPLC). […] The stability of the product at room temperature was monitored for 2 h and assessed by UV-Radio-HPLC. […] The total radioactivity of the product was then measured in an ionization chamber. The radioactivity recovery from the analytical column was controlled by performing an analysis of the product, generator eluate, and the product spiked with the generator eluate with and without column. […]

CC[C@H](C)[C@H](NC(=O)[C@H](CO)NC(=O)[C@H](Cc1ccc(O)cc1)NC(=O)[C@H](CC(=O)O)NC(=O)[C@H](CO)NC(=O)[C@@H](NC(=O)[C@H](Cc1ccccc1)NC(=O)[C@@H](NC(=O)CNC(=O)[C@H](CCC(=O)O)NC(=O)[C@@H](C)NC(=O)[C@@H](N)Cc1ccc(O)cc1)[C@@H](C)O)[C@@H](C)CC)C(=O)N[C@@H](C)C(=O)N[C@@H](CC(C)C)C(=O)N[C@@H](CC(=O)O)C(=O)N[C@@H](CCCCN)C(=O)N[C@H](C(=O)N[C@@H](Cc1c[nH]cn1)C(=O)N[C@@H](CCC(N)=O)C(=O)N[C@@H](CCC(N)=O)C(=O)N[C@@H](CCC(=O)O)C(=O)N[C@@H](Cc1ccccc1)C(=O)N[C@H](C(=O)N[C@@H](CCC(=O)O)C(=O)N[C@@H](Cc1c[nH]c2ccccc12)C(=O)N[C@@H](CC(C)C)C(=O)N[C@@H](CCCCN)C(=O)N[C@@H](C)C(=O)NCC(=O)NCC(=O)N[C@@H](Cc1c[nH]cn1)C(=O)N1CCC[C@H]1C(=O)N[C@@H](CO)C(=O)NCC(=O)N[C@@H](C)C(=O)N1CCC[C@H]1C(=O)N1CCC[C@H]1C(=O)N1CCC[C@H]1C(=O)N[C@@H](CO)C(=O)N[C@@H](CSCCS(=O)(=O)CCN1CCN(CC(=O)O)CCN(CC(=O)O)CCN(CC(=O)O)CC1)C(N)=O)[C@@H](C)CC)[C@@H](C)CC [[^68Ga]Ga-C803-GIP, metal not drawn]
SUV at 5 min ([1]; male, Sprague Dawley, liver, iv, total radioactivity, 5 min post-administration, read-out: liver uptake): < 1 SUV
liver washout with respect to the 5 min time point, within 1 h [1]: 50%
liver washout with respect to the 5 min time point, within 3 h [1]: 75%
kidney uptake ([1]; within 3 h): 85.5 ± 1.6 SUV
radiochemical purity on post-production storage (stability) [2]: over 91%
